Laboratory results from paper PMC8323898, “Examination of the roles of a conserved motif in the PriA helicase in structure-specific DNA unwinding and processivity”.

What was measured:
[1] = target: T1, PriA wild-type (Escherichia coli, UniProt P17888 1-732); assay: EMSA; three shifted bands; 5 mM EDTA; EMSA: 0.1-10 nM PriA, 1 nM fork, 50 mM Tris-HCl pH 8.0, 0.1 mg/mL BSA, 2 mM DTT, 5 mM EDTA, 6% glycerol, 30 min on ice, 4% PAGE; details: protein: recombinant; tags: N-terminal His6; label: radiolabel; fork 1:2, 60 bp parental duplex, two 38-nt ssDNA arms
[2] = target: T2, PriA Arg187Ala (Escherichia coli, UniProt P17888 1-732, R187A); assay: EMSA; same as wild type; 5 mM EDTA; EMSA: 0.1-10 nM PriA, 1 nM fork, 50 mM Tris-HCl pH 8.0, 0.1 mg/mL BSA, 2 mM DTT, 5 mM EDTA, 6% glycerol, 30 min on ice, 4% PAGE; details: protein: recombinant; tags: His-tag; label: radiolabel; fork 1:2, 60 bp parental duplex, two 38-nt ssDNA arms
[3] = target: T3, PriA triple variant (Escherichia coli, UniProt P17888 1-732, W186A;R187A;Y190A); assay: as above; details: protein: recombinant; tags: His-tag; label: radiolabel; fork 1:2, 60 bp parental duplex, two 38-nt ssDNA arms
[4] = target: T4, PriA Tyr190Ala (Escherichia coli, UniProt P17888 1-732, Y190A); assay: as above; details: protein: recombinant; tags: His-tag; label: radiolabel; fork 1:2, 60 bp parental duplex, two 38-nt ssDNA arms
[5] = target: T5, PriA Trp186Ala (Escherichia coli, UniProt P17888 1-732, W186A); assay: as above; details: protein: recombinant; tags: His-tag; label: radiolabel; fork 1:2, 60 bp parental duplex, two 38-nt ssDNA arms
[6] = target: T1, PriA wild-type; assay: EMSA; one dominant shifted species; 5 mM EDTA; EMSA: 0.1-10 nM PriA, 1 nM fork, 50 mM Tris-HCl pH 8.0, 0.1 mg/mL BSA, 2 mM DTT, 5 mM EDTA, 6% glycerol, 30 min on ice, 4% PAGE; details: protein: recombinant; tags: N-terminal His6; label: radiolabel; fork 1:2 (60 bp) 2:3 (33 bp nascent lagging) 1:4 (38 bp nascent leading), 5-nt lagging gap
[7] = target: T2, PriA Arg187Ala; assay: EMSA; similar to wild type; 5 mM EDTA; EMSA: 0.1-10 nM PriA, 1 nM fork, 50 mM Tris-HCl pH 8.0, 0.1 mg/mL BSA, 2 mM DTT, 5 mM EDTA, 6% glycerol, 30 min on ice, 4% PAGE; details: protein: recombinant; tags: His-tag; label: radiolabel; fork 1:2 (60 bp) 2:3 (33 bp nascent lagging) 1:4 (38 bp nascent leading), 5-nt lagging gap
[8] = target: T3, PriA triple variant; assay: as above; details: protein: recombinant; tags: His-tag; label: radiolabel; fork 1:2 (60 bp) 2:3 (33 bp nascent lagging) 1:4 (38 bp nascent leading), 5-nt lagging gap
[9] = target: T4, PriA Tyr190Ala; assay: as above; details: protein: recombinant; tags: His-tag; label: radiolabel; fork 1:2 (60 bp) 2:3 (33 bp nascent lagging) 1:4 (38 bp nascent leading), 5-nt lagging gap
[10] = target: T5, PriA Trp186Ala; assay: as above; details: protein: recombinant; tags: His-tag; label: radiolabel; fork 1:2 (60 bp) 2:3 (33 bp nascent lagging) 1:4 (38 bp nascent leading), 5-nt lagging gap

Measured: binding result

B1: two-stranded fork (1b-98/3L-98) (mixed)
DNA 1: GCAAGCCTTCTACAGGTCGACCGTCCATGGCGACTCGAGACCGCAATACGGATAAGGGCTGAGCACGCCGACGAACATTCACCACGCCAGACCACGTA
DNA 2: GACTATCTACGTCCGAGGCTCGCGCCGCAGACTCATTTAGCCCTTATCCGTATTGCGGTCTCGAGTCGCCATGGACGGTCGACCTGTAGAAGGCTTGC
binds: [1] | [2] | [3] | [4] | [5]

B2: four-stranded fork (1b-98/3L-98/b-33/11b-38) (mixed)
DNA 1: B1 DNA 1
DNA 2: B1 DNA 2
DNA 3: AGTCTGCGGCGCGAGCCTCGGACGTAGATAGTC
DNA 4: TACGTGGTCTGGCGTGGTGAATGTTCGTCGGCGTGCTC
binds: [6] | [7] | [8] | [9] | [10]
